B1: Homo Sapiens Nucleoporin 160 Kda (other, UniProt Q12769 1-1436, looked up, not shown: large carriers)
chain: MLHLSAAPPAPPPEVTATARPCLCSVGRRGDGGKMAAAGALERSFVELSGAERERPRHFREFTVCSIGTANAVAGAVKYSESAGGFYYVESGKLFSVTRNRFIHWKTSGDTLELMEESLDINLLNNAIRLKFQNCSVLPGGVYVSETQNRVIILMLTNQTVHRLLLPHPSRMYRSELVVDSQMQSIFTDIGKVDFTDPCNYQLIPAVPGISPNSTASTAWLSSDGEALFALPCASGGIFVLKLPPYDIPGMVSVVELKQSSVMQRLLTGWMPTAIRGDQSPSDRPLSLAVHCVEHDAFIFALCQDHKLRMWSYKEQMCLMVADMLEYVPVKKDLRLTAGTGHKLRLAYSPTMGLYLGIYMHAPKRGQFCIFQLVSTESNRYSLDHISSLFTSQETLIDFALTSTDIWALWHDAENQTVVKYINFEHNVAGQWNPVFMQPLPEEEIVIRDDQDPREMYLQSLFTPGQFTNEALCKALQIFCRGTERNLDLSWSELKKEVTLAVENELQGSVTEYEFSQEEFRNLQQEFWCKFYACCLQYQEALSHPLALHLNPHTNMVCLLKKGYLSFLIPSSLVDHLYLLPYENLLTEDETTISDDVDIARDVICLIKCLRLIEESVTVDMSVIMEMSCYNLQSPEKAAEQILEDMITIDVENVMEDICSKLQEIRNPIHAIGLLIREMDYETEVEMEKGFNPAQPLNIRMNLTQLYGSNTAGYIVCRGVHKIASTRFLICRDLLILQQLLMRLGDAVIWGTGQLFQAQQDLLHRTAPLLLSYYLIKWGSECLATDVPLDTLESNLQHLSVLELTDSGALMANRFVSSPQTIVELFFQEVARKHIISHLFSQPKAPLSQTGLNWPEMITAITSYLLQLLWPSNPGCLFLECLMGNCQYVQLQDYIQLLHPWCQVNVGSCRFMLGRCYLVTGEGQKALECFCQAASEVGKEEFLDRLIRSEDGEIVSTPRLQYYDKVLRLLDVIGLPELVIQLATSAITEAGDDWKSQATLRTCIFKHHLDLGHNSQAYEALTQIPDSSRQLDCLRQLVVVLCERSQLQDLVEFPYVNLHNEVVGIIESRARAVDLMTHNYYELLYAFHIYRHNYRKAGTVMFEYGMRLGREVRTLRGLEKQGNCYLAALNCLRLIRPEYAWIVQPVSGAVYDRPGASPKRNHDGECTAAPTNRQIEILELEDLEKECSLARIRLTLAQHDPSAVAVAGSSSAEEMVTLLVQAGLFDTAISLCQTFKLPLTPVFEGLAFKCIKLQFGGEAAQAEAWAWLAANQLSSVITTKESSATDEAWRLLSTYLERYKVQNNLYHHCVINKLLSHGVPLPNWLINSYKKVDAAELLRLYLNYDLLEEAVDLVSEYVDAVLGKGHQYFGIEFPLSATAPMVWLPYSSIDQLLQALGENSANSHNIALSQKILDKLEDYQQKVDKATRDLLYRRTL
notes: Prey clone; extent of the clone unknown; also called Homo Sapiens Nucleoporin 160 kD (NUP160); AD-IP
B2: Homo Sapiens Retinoic Acid Receptor Gamma-1 (receptor, UniProt P13631 1-454, looked up, not shown: large carriers)
chain: MATNKERLFAAGALGPGSGYPGAGFPFAFPGALRGSPPFEMLSPSFRGLGQPDLPKEMASLSVETQSTSSEEMVPSSPSPPPPPRVYKPCFVCNDKSSGYHYGVSSCEGCKGFFRRSIQKNMVYTCHRDKNCIINKVTRNRCQYCRLQKCFEVGMSKEAVRNDRNKKKKEVKEEGSPDSYELSPQLEELITKVSKAHQETFPSLCQLGKYTTNSSADHRVQLDLGLWDKFSELATKCIIKIVEFAKRLPGFTGLSIADQITLLKAACLDILMLRICTRYTPEQDTMTFSDGLTLNRTQMHNAGFGPLTDLVFAFAGQLLPLEMDDTETGLLSAICLICGDRMDLEEPEKVDKLQEPLLEALRLYARRRRPSQPYMFPRMLMKITDLRGISTKGAERAITLKMEIPGPMPPLIREMLENPEMFEDDSSQPGPHPNASSEDEVPGGQGKGGLKSPA
notes: Prey clone; extent of the clone unknown; also called Human Retinoic Acid Receptor Gamma 1; AD-IP
B3: Homo Sapiens Thyroid Hormone Receptor Alpha (receptor, UniProt P10827-2 1-410, looked up, not shown: large carriers)
chain: MEQKPSKVECGSDPEENSARSPDGKRKRKNGQCSLKTSMSGYIPSYLDKDEQCVVCGDKATGYHYRCITCEGCKGFFRRTIQKNLHPTYSCKYDSCCVIDKITRNQCQLCRFKKCIAVGMAMDLVLDDSKRVAKRKLIEQNRERRRKEEMIRSLQQRPEPTPEEWDLIHIATEAHRSTNAQGSHWKQRRKFLPDDIGQSPIVSMPDGDKVDLEAFSEFTKIITPAITRVVDFAKKLPMFSELPCEDQIILLKGCCMEIMSLRAAVRYDPESDTLTLSGEMAVKREQLKNGGLGVVSDAIFELGKSLSAFNLDDTEVALLQAVLLMSTDRSGLLCVDKIEKSQEAYLLAFEHYVNHRKHNIPHFWPKLLMKVTDLRMIGACHASRFLHMKVECPTELFPPLFLEVFEDQEV
notes: Prey clone; extent of the clone unknown; also called AD-IP; BC000261
B4: Homo Sapiens Annexin A1 (Lipocortin 1 or P35) (other, UniProt P04083 1-346, looked up, not shown: large carriers)
chain: MAMVSEFLKQAWFIENEEQEYVQTVKSSKGGPGSAVSPYPTFNPSSDVAALHKAIMVKGVDEATIIDILTKRNNAQRQQIKAAYLQETGKPLDETLKKALTGHLEEVVLALLKTPAQFDADELRAAMKGLGTDEDTLIEILASRTNKEIRDINRVYREELKRDLAKDITSDTSGDFRNALLSLAKGDRSEDFGVNEDLADSDARALYEAGERRKGTDVNVFNTILTTRSYPQLRRVFQKYTKYSKHDMNKVLDLELKGDIEKCLTAIVKCATSKPAFFAEKLHQAMKGVGTRHKALIRIMVSRSEIDMNDIKAFYQKMYGISLCQAILDETKGDYEKILVALCGGN
notes: Prey clone; extent of the clone unknown; also called AD-IP; BC001275
B5: Homo Sapiens Keratin 5 (other, UniProt P13647 1-590, looked up, not shown: large carriers)
chain: MSRQSSVSFRSGGSRSFSTASAITPSVSRTSFTSVSRSGGGGGGGFGRVSLAGACGVGGYGSRSLYNLGGSKRISISTSGGSFRNRFGAGAGGGYGFGGGAGSGFGFGGGAGGGFGLGGGAGFGGGFGGPGFPVCPPGGIQEVTVNQSLLTPLNLQIDPSIQRVRTEEREQIKTLNNKFASFIDKVRFLEQQNKVLDTKWTLLQEQGTKTVRQNLEPLFEQYINNLRRQLDSIVGERGRLDSELRNMQDLVEDFKNKYEDEINKRTTAENEFVMLKKDVDAAYMNKVELEAKVDALMDEINFMKMFFDAELSQMQTHVSDTSVVLSMDNNRNLDLDSIIAEVKAQYEEIANRSRTEAESWYQTKYEELQQTAGRHGDDLRNTKHEISEMNRMIQRLRAEIDNVKKQCANLQNAIADAEQRGELALKDARNKLAELEEALQKAKQDMARLLREYQELMNTKLALDVEIATYRKLLEGEECRLSGEGVGPVNISVVTSSVSSGYGSGSGYGGGLGGGLGGGLGGGLAGGSSGSYYSSSSGGVGLGGGLSVGGSGFSASSGRGLGVGFGSGGGSSSSVKFVSTTSSSRKSFKS
notes: Prey clone of the human keratinocyte AD-cDNA library; whole protein named, extent of the clone unknown; also called AD-IP; BC024292
B6: Homo Sapiens Insulin-like Growth Factor Binding Domain Protein 6 (other, UniProt P24592 28-240, looked up, not shown: large carriers)
chain: RCPGCGQGVQAGCPGGCVEEEDGGSPAEGCAEAEGCLRREGQECGVYTPNCAPGLQCHPPKDDEAPLRALLLGRGRCLPARAPAVAEENPKESKPQAGTARPQDVNRRDQQRNPGTSTTPSQPNSAGVQDTEMGPCRRHLDSVLQQLQTEVYRGAQTLYVPNCDHRGFYRKRQCRSSQGQRRGPCWCVDRMGKSLPGSPDGNGSSSCPTGSSG
notes: Prey clone; extent of the clone unknown; also called AD-IP
B7: Homo Sapiens Inner Membrane Protein, Mitochondrial (Mitofilin) (other, UniProt Q16891 1-758, looked up, not shown: large carriers)
chain: MLRACQLSGVTAAAQSCLCGKFVLRPLRPCRRYSTSGSSGLTTGKIAGAGLLFVGGGIGGTILYAKWDSHFRESVEKTIPYSDKLFEMVLGPAAYNVPLPKKSIQSGPLKISSVSEVMKESKQPASQLQKQKGDTPASATAPTEAAQIISAAGDTLSVPAPAVQPEESLKTDHPEIGEGKPTPALSEEASSSSIRERPPEEVAARLAQQEKQEQVKIESLAKSLEDALRQTASVTLQAIAAQNAAVQAVNAHSNILKAAMDNSEIAGEKKSAQWRTVEGALKERRKAVDEAADALLKAKEELEKMKSVIENAKKKEVAGAKPHITAAEGKLHNMIVDLDNVVKKVQAAQSEAKVVSQYHELVVQARDDFKRELDSITPEVLPGWKGMSVSDLADKLSTDDLNSLIAHAHRRIDQLNRELAEQKATEKQHITLALEKQKLEEKRAFDSAVAKALEHHRSEIQAEQDRKIEEVRDAMENEMRTQLRRQAAAHTDHLRDVLRVQEQELKSEFEQNLSEKLSEQELQFRRLSQEQVDNFTLDINTAYARLRGIEQAVQSHAVAEEEARKAHQLWLSVEALKYSMKTSSAETPTIPLGSAVEAIKANCSDNEFTQALTAAIPPESLTRGVYSEETLRARFYAVQKLARRVAMIDETRNSLYQYFLSYLQSLLLFPPQQLKPPPELCPEDINTFKLLSYASYCIEHGDLELAAKFVNQLKGESRRVAQDWLKEARMTLETKQIVEILTAYASAVGIGTTQVQPE
notes: Prey clone; extent of the clone unknown; also called AD-IP; BC002412

Target: T1, LexA BD-HRt (mouse, UniProt P0A7C2 1-202; Q61645 490-1182)
T1 construct: domain: Lex A DNA BD;range 490-1182; also called BD-HRt(mouse); Lex A DNA BD-HRt
T1 sequence (looked up): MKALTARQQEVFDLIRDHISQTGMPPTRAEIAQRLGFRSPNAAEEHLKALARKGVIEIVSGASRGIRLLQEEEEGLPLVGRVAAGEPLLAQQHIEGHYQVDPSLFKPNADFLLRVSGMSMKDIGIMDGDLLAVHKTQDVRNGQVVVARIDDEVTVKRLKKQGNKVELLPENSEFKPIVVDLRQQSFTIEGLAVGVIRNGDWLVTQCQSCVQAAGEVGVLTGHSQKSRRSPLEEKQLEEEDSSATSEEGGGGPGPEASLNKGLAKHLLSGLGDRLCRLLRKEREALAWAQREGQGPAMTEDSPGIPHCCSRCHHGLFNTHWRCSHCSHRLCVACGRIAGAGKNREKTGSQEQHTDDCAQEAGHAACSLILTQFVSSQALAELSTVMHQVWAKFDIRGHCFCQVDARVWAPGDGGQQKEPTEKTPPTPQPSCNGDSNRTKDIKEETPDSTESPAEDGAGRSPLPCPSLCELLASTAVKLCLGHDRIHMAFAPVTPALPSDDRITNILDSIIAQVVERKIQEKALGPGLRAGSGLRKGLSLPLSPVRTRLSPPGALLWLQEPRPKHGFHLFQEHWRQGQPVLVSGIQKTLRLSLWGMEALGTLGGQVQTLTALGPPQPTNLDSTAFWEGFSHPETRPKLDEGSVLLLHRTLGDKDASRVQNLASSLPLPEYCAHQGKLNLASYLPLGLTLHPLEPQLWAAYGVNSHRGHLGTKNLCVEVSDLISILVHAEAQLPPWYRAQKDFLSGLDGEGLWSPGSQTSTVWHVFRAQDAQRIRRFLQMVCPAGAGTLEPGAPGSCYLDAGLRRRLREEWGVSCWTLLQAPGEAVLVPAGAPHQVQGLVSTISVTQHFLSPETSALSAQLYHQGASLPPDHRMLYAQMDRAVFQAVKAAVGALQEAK
Experiment: yeast two-hybrid library screen; number of positive clones with this identity
From the text: Clontech Human Keratinocyte GAL4 cDNA library (complexity 2.5×10⁶) in pACT2 vector was used used to screen for HRt interacting proteins. A Leu⁻, Trp⁻ yeast strain with HIS3 and LACZ reporters for yeasts two hybrid interaction (strain L41) was first transformed with LexA BD-HRt palsmid) for Trp⁺ phenotype. The resulting L41/LexA BD-HR transformant was screened to ensure expression of LexA BD-HRt protein and also for lack of auto activation of the reporter genes HIS3 and LACZ. This strain was transformed with Keratinocyte AD-cDNA library and plated on Trp⁻Leu⁻His⁻ plate to select for clones with positive interaction. Colonies that appeared on selsctive plates were subsequently tested for LACZ expression on X-GAL plates. […] AD-plasmid was rescued from the 90 clones and retested for HRt bait dependance. […] The positive clones are expected to contain an AD-IP (interacting partner) that interacts with BD-HRt.

Binder	Hits
B1	3
B2	1
B3	7
B4	1
B5	1
B6	1
B7	3
